Data set [1] has as its system HeLa Kyoto. Description: solubility change mitosis vs G1/S (difference of NP-40 vs SDS log2 ratios) (log2 ratio difference); higher = more soluble in mitosis.
The subject of data set [2] is HeLa Kyoto. As to the kind of experiment: solubility in G1/S (NP-40 vs SDS abundance) (log2 ratio); higher = more soluble. The conditions noted are these: cell cycle stage: G1/S.
For data set [3], the system named is HeLa Kyoto. Description: thermal stability score vs G1/S (z-score of summed log2 fold changes over temperatures); higher = more thermally stable than in G1/S.
In data set [4] the test system is HeLa Kyoto. Description: melting temperature (median over replicates), in situ; higher = more thermally stable.
The mark [5] stands for this setting: cell cycle stage: early G1 (4.5 h after nocodazole release).
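For melting temperature (median over replicates), in situ in this document: HeLa Kyoto cells synchronized by double thymidine or nocodazole block, proteins quantified by TMT10plex mass spectrometry, three independent biological replicates.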
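For solubility change mitosis vs G1/S (difference of NP-40 vs SDS log2 ratios) in this document: synchronized HeLa Kyoto cells (double thymidine block for G1/S, nocodazole release for mitosis), protein amounts in NP-40 versus SDS lysates quantified by mass spectrometry, three biological replicates.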
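For solubility in G1/S (NP-40 vs SDS abundance) in this document: HeLa Kyoto cells arrested at G1/S by double thymidine block, proteins quantified by TMT10plex mass spectrometry in mild NP-40 versus SDS extracts, three biological replicates.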
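For thermal stability score vs G1/S (z-score of summed log2 fold changes over temperatures) in this document: synchronized HeLa Kyoto cells, proteins quantified by TMT10plex mass spectrometry, three biological replicates, mitosis taken 0.5 h after nocodazole release, G1/S directly after double thymidine block.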

For “MATFISVQLKKTSEVDLAKPLVKFIQQTYPSGGEEQAQYCRAAEELSKLRRAAVGRPLDKHEGALETLLRYYDQICSIEPKFPFSENQICLTFTWKDAFDKGSLFGGSVKLALASLGYEKSCVLFNCAALASQIAAEQNLDNDEGLKIAAKHYQFASGAFLHIKETVLSALSREPTVDISPDTVGTLSLIMLAQAQEVFFLKATRDKMKDAIIAKLANQAADYFGDAFKQCQYKDTLPKEVFPVLAAKHCIMQANAEYHQSILAKQQKKFGEEIARLQHAAELIKTVASRYDEYVNVKDFSDKINRALAAAKKDNDFIYHDRVPDLKDLDPIGKATLVKSTPVNVPISQKFTDLFEKMVPVSVQQSLAAYNQRKADLVNRSIAQMREATTLANGVLASLNLPAAIEDVSGDTVPQSILTKSRSVIEQGGIQTVDQLIKELPELLQRNREILDESLRLLDEEEATDNDLRAKFKERWQRTPSNELYKPLRAEGTNFRTVLDKAVQADGQVKECYQSHRDTIVLLCKPEPELNAAIPSANPAKTMQGSEVVNVLKSLLSNLDEVKKEREGLENDLKSVNFDMTSKFLTALAQDGVINEEALSVTELDRVYGGLTTKVQESLKKQEGLLKNIQVSHQEFSKMKQSNNEANLREEVLKNLATAYDNFVELVANLKEGTKFYNELTEILVRFQNKCSDIVFARKTERDELLKDLQQSIAREPSAPSIPTPAYQSSPAGGHAPTPPTPAPRTMPPTKPQPPARPPPPVLPANRAPSATAPSPVGAGTAAPAPSQTPGSAPPPQAQGPPYPTYPGYPGYCQMPMPMGYNPYAYGQYNMPYPPVYHQSPGQAPYPGPQQPSYPFPQPPQQSYYPQQ [PDCD6IP]”, in the data set with HeLa Kyoto [1], the “solubility change mitosis (log2)” value is -0.0427. For the same sequence, the “solubility in G1/S (log2)” value with HeLa Kyoto [2] came out at 0.366. Moreover, the thermal stability score was -2.03 in the data set on HeLa Kyoto [3] (setting [5]) and -1.7 with HeLa Kyoto [3] (cell cycle stage: mitosis). For the same sequence, the values for the melting temperature in the data set on HeLa Kyoto [4] (cell cycle stage: G1/S) and with HeLa Kyoto [4] (cell cycle stage: mitosis) were 48.7 °C and 48.6 °C, respectively.

Take “MATKARVMYDFAAEPGNNELTVNEGEIITITNPDVGGGWLEGRNIKGERGLVPTDYVEILPSDGKDQFSCGNSVADQAFLDSLSASTAQASSSAASNNHQVGSGNDPWSAWSASKSGNWESSEGWGAQPEGAGAQRNTNTPNNWDTAFGHPQAYQGPATGDDDDWDEDWDGPKSSSYFKDSESADAGGAQRGNSRASSSSMKIPLNKFPGFAKPGTEQYLLAKQLAKPKEKIPIIVGDYGPMWVYPTSTFDCVVADPRKGSKMYGLKSYIEYQLTPTNTNRSVNHRYKHFDWLYERLLVKFGSAIPIPSLPDKQVTGRFEEEFIKMRMERLQAWMTRMCRHPVISESEVFQQFLNFRDEKEWKTGKRKAERDELAGVMIFSTMEPEAPDLDLVEIEQKCEAVGKFTKAMDDGVKELLTVGQEHWKRCTGPLPKEYQKIGKALQSLATVFSSSGYQGETDLNDAITEAGKTYEEIASLVAEQPKKDLHFLMECNHEYKGFLGCFPDIIGTHKGAIEKVKESDKLVATSKITLQDKQNMVKRVSIMSYALQAEMNHFHSNRIYDYNSVIRLYLEQQVQFYETIAEKLRQALSRFPVM [SNX9]”: the “solubility change mitosis (log2)” value with HeLa Kyoto [1] is -0.0298. Further, in the data set with HeLa Kyoto [2], the “solubility in G1/S (log2)” value was -0.0383. In addition, the thermal stability score in the data set with HeLa Kyoto [3] (setting [5]) was -0.198; with HeLa Kyoto [3] (cell cycle stage: mitosis), 0.732. The melting temperature in the data set with HeLa Kyoto [4] (cell cycle stage: G1/S) came out at 49.9 °C; in the data set on HeLa Kyoto [4] (cell cycle stage: mitosis), 49.3 °C.

Turning to “MATRVEEAARGRGGGAEEATEAGRGGRRRSPRQKFEIGTMEEAGICGLGVKADMLCNSQSNDILQHQGSNCGGTSNKHSLEEDEGSDFITENRNLVSPAYCTQESREEIPGGEARTDPPDGQQDSECNRNKEKTLGKEVLLLMQALNTLSTPEEKLAALCKKYADLLEESRSVQKQMKILQKKQAQIVKEKVHLQSEHSKAILARSKLESLCRELQRHNKTLKEENMQQAREEEERRKEATAHFQITLNEIQAQLEQHDIHNAKLRQENIELGEKLKKLIEQYALREEHIDKVFKHKELQQQLVDAKLQQTTQLIKEADEKHQREREFLLKEATESRHKYEQMKQQEVQLKQQLSLYMDKFEEFQTTMAKSNELFTTFRQEMEKMTKKIKKLEKETIIWRTKWENNNKALLQMAEEKTVRDKEYKALQIKLERLEKLCRALQTERNELNEKVEVLKEQVSIKAAIKAANRDLATPVMQPCTALDSHKELNTSSKRALGAHLEAEPKSQRSAVQKPPSTGSAPAIESVD [TXLNG]”, in the data set on HeLa Kyoto [1], the “solubility change mitosis (log2)” value was 0.0514. For the same sequence, the “solubility in G1/S (log2)” value with HeLa Kyoto [2] stood at 0.584. In addition, the results for the thermal stability score with HeLa Kyoto [3] (setting [5]) and in the data set with HeLa Kyoto [3] (cell cycle stage: mitosis) were -0.882 and -2.17, respectively. The melting temperature in the data set on HeLa Kyoto [4] (cell cycle stage: G1/S) and in the data set with HeLa Kyoto [4] (cell cycle stage: mitosis) was 52.5 °C throughout.

As to “MATSSMSKGCFVFKPNSKKRKISLPIEDYFNKGKNEPEDSKLRFETYQLIWQQMKSENERLQEELNKNLFDNLIEFLQKSHSGFQKNSRDLGGQIKLREIPTAALVLGVNVTDHDLTFGSLTEALQNNVTPYVVSLQAKDCPDMKHFLQKLISQLMDCCVDIKSKEEESVHVTQRKTHYSMDSLSSWYMTVTQKTDPKMLSKKRTTSSQWQSPPVVVILKDMESFATKVLQDFIIISSQHLHEFPLILIFGIATSPIIIHRLLPHAVSSLLCIELFQSLSCKEHLTTVLDKLLLTTQFPFKINEKVLQVLTNIFLYHDFSVQNFIKGLQLSLLEHFYSQPLSVLCCNLPEAKRRINFLSNNQCENIRRLPSFRRYVEKQASEKQVALLTNERYLKEETQLLLENLHVYHMNYFLVLRCLHKFTSSLPKYPLGRQIRELYCTCLEKNIWDSEEYASVLQLLRMLAKDELMTILEKCFKVFKSYCENHLGSTAKRIEEFLAQFQSLDETKEEEDASGSQPKGLQKTDLYHLQKSLLEMKELRRSKKQTKFEVLRENVVNFIDCLVREYLLPPETQPLHEVVYFSAAHALREHLNAAPRIALHTALNNPYYYLKNEALKSEEGCIPNIAPDICIAYKLHLECSRLINLVDWSEAFATVVTAAEKMDANSATSEEMNEIIHARFIRAVSELELLGFIKPTKQKTDHVARLTWGGC [ORC3]”, the “solubility change mitosis (log2)” value in the data set with HeLa Kyoto [1] was -0.145. Besides, in the data set on HeLa Kyoto [2], the “solubility in G1/S (log2)” value is -0.303. Further, the values for the thermal stability score in the data set with HeLa Kyoto [3] (setting [5]) and in the data set with HeLa Kyoto [3] (cell cycle stage: mitosis) were 1.65 and 2.89, respectively. Further, the values for the melting temperature in the data set on HeLa Kyoto [4] (cell cycle stage: G1/S) and with HeLa Kyoto [4] (cell cycle stage: mitosis) were 48 °C and 48.7 °C, respectively.

As to “MAVARLAAVAAWVPCRSWGWAAVPFGPHRGLSVLLARIPQRAPRWLPACRQKTSLSFLNRPDLPNLAYKKLKGKSPGIIFIPGYLSYMNGTKALAIEEFCKSLGHACIRFDYSGVGSSDGNSEESTLGKWRKDVLSIIDDLADGPQILVGSSLGGWLMLHAAIARPEKVVALIGVATAADTLVTKFNQLPVELKKEVEMKGVWSMPSKYSEEGVYNVQYSFIKEAEHHCLLHSPIPVNCPIRLLHGMKDDIVPWHTSMQVADRVLSTDVDVILRKHSDHRMREKADIQLLVYTIDDLIDKLSTIVN [ABHD10]”, the “solubility change mitosis (log2)” value in the data set on HeLa Kyoto [1] is -0.147. Also, the “solubility in G1/S (log2)” value in the data set on HeLa Kyoto [2] is 0.191. Also, the thermal stability score was 1.29 with HeLa Kyoto [3] (setting [5]) and -0.803 in the data set on HeLa Kyoto [3] (cell cycle stage: mitosis). The melting temperature in the data set on HeLa Kyoto [4] (cell cycle stage: G1/S) is 57.4 °C; in the data set with HeLa Kyoto [4] (cell cycle stage: mitosis), 57.6 °C.

(Values after the supplement of paper PMC5998384.)
